# Data published in patent US20160053277A1, “Compositions Having Dicamba Decarboxylase Activity and Methods of Use” (PIONEER HI-BRED INTERNATIONAL, INC., priority 2013, published 2016).
# Changes are numbered by the printed parent chain.
# B1: 13 (protein, listed as Metarhizium acridum)
# chain: MAHGKVALEEAFALPRLHEKTRWWASLFAVNPDKHAAEMTDITDIRINYMDKHGVGYTILSYTAPGVQDISDPKEAQALAVEINDYVAGAIKNHPDRFGAFATLSMRNPQEAATELKRCVTQYGFKGALVNDTQRAGEDDMIFYDGPEWDVFWSTVEELDVPFYLHPRNPTGSLYEKLWAKRKWLVGPPLSFAQGVSLHVLGMVTNGVFDRHPKLQVVLGHLGEHIPFDMWRINHWFEDVKKPLGLDCKKTIREYFQQNIWITTSGHFSTTTLQFCMAEVGADRILFSIDYPFECFADACDWYDGVPINLVDKAKIGRDNARRLFKLPEFKDSEKHVDA
# B2: 8 (protein, listed as Metarhizium anisopliae)
# chain: MARGKINFEEAFELPTLADSSREQAALYIAPKDLDRYIYHIKHPLGERLQLANSHGIGYTIYSLTVPGIQGIPDQSKAEQHATTVNDWIANEIKDHRDRLGAFAALSMHDAAQAAAELERCVRQHGFHGALLNNYQHAGPDGETYLFYDQPAYDVFWQKCVELDVPVYLHPAAPAGNYYKQMYAQRKYLVGPPLSFANDVSLHLLGLVTNGVFDRFPKLKVVVGHLGEHIPFDFWRISHWLEDVERPLAAGRGDVMSKKDLLYYFKNNIWVTTSGHFSTPTVRYVADYLGPERIMFSVDTPYETIENGVGWFDGEEDALTRALGGEDGYKKVARENAKKLFKLTKYHDCDA
# B3: 9 (protein, listed as Octadecabacter antarcticus)
# chain: MATPKITFEEHFMAPGFEKHSEAFLKLIPRDQAEILTRRLGDFDGERIETMDRGGITRSIISLTGPGTQGEAVEKAVSAAQGANDFLAEKISKKPDRLGGLATLPMHDPDAAARELNRAVNDLGLQGCLVNTHTHGAYYEGTDYDPFWAEVEKLGVPFYLHPSNAYVTPHVLGGMPVLQGATWGWGVETGSHALRILFGGVFDRFPDVKLVLGHMGEALPFLRWRYDSRFGAYPMGVSLDRAPSAYFGSNILITTSGVCSHPSLIGAIGEMGADAVMFSVDYPYEDTDLAVEFIETAPLEDATRVKICHDNAARLFGMPTLAAKEGA
# B4: 12 (protein, listed as Zymoseptoria tritici)
# chain: MALGKVAFEEAFALPRFKERTTWWAGLFAVDPEKHTREINDINKLRIEKMDQFGVGYTLLSYTAPGVQDVWQQEEADALAREVNDHVAAEIKGHEDRLGALATLSMHDPQTASAELRRCIKDYGFKGALVNDTQRNDESGTGMIFYDGPEWDVFWSTVQELDVPFYLHPRNPTGVFMEKLWAPRKWLVGPPLSFAQGVSLHLLGMVTNGTFDRFPNLQVIIGHLGEHLPFDLWRINHWFEDIKKPLGLDCKKTIREYFNENIWITTSGHFSTPTLEYCIKEIGAERILFSIDYPFEKFEDACDWYDGVELDGPDTVKKIGRENAKKLFKLGAFKDDSA
# B5: 105 (protein)
# chain: MAIDFHVHLDLYPDPVAVARACEERQLTVLSVTTTPAAWRGTLALAAGRPHVWTALGFHPEVVSERAADLPWFDRYLPETRFVGEVGLDGSPSLRGTWTQQFAVFQHILRRCEDHGGRILSIHSRRAESEVLNCLEANPRSGTPILHWYSGSVTELRRAISLGCWFSVGPTMVRTQKGAALIRSMPRDRVLTETDGPFLELDGQAALPWDVKSVVEGLSKIWQIPASEVERIVKENVSRLLGTVR
# modifications: Deinococcus radiodurans
# B6: 17 (protein)
# chain: MARGKIALEEAFEVKGMDEEIDAQAALYIAPKDVERYKRQIVSITDERLQLSDQNGIGYSILSLTVPGIQGITDKDKAEKRARDVNNYIHDQIKDHRDRLGAFAALSMHDPRQAGHELRRCVKELGFHGALLNDVQHTGEGDDDQPLFYDQPDYDEFWRVAVELDVPVYLHPAAPLRDTLIYKQSYEDRKYLVGPPQSYCNGVALHLMGIIVNGVFDRFPNLKVIVGHMGERIPFDFWRMDHWVKGVTRPLAEKNGDTVCQKEPLYYFKRNIYITTSGHFSTQNLRYLYEWLGDERMMFSVDFPYERMEHGCQWYDDDAEKIKEALGGRDGYLRVGRDNARRLFKLTKFKDCDAV
# modifications: Aspergillus niger
# B7: 106 (protein, listed as Pyrococcus horikoshii)
# chain: MAGMKFIKNLHVSKLVIDSMKALINGTIYTSFNPLKKVSGLVISHGKVIYAGDSEVAKKIVELSGGEIVDLKGKYVMPAFFDSHLHLDELGMSLEMVDLRGAKSIEELIQRLKRGKGRIIFGFGWDQDELGEWPTRKELNAIDKPVFIYRKCFHVAVANDKMLELLNLTPSKDFDEDTGIIKEKSLEEARKVINERVLTVEDYVYYIKRAQEHLLDLGVKSVSFMSVNEKALRALFYLEREGKLSINVFAYVTPEVLDKLESIGLGRFQGNRLTIAGVKLFTDGSLGARTALLSKPYSDDPSTSGQLVMEREELIRITEKARSLGLDVAIHAIGDKALDVALDVFETTGFPGRIEHASLVRDDQLERVKNLKVRLSVQPHFIISDWWIVERVGEERVKWVYRFKDLMKVAELGFSTDSPIEPADPWLTVDAAVNRGKGKVKLYELTKDQALDIKDALHSYTYGSARVSLASDIGKLEPGFKAEYIILDRDPLVVK
# B8: 11 (protein)
# chain: MALGKIALEEAFALPRFEEKTRWWASLFSVDPETHVKEITDINKLRIEHADKYGVGYQILSYTAPGVQDIWDPVEAQALAVEINDYIAEQIRDKPDRFGAFATLSMHNPQEAASELRRCVQTYGFKGALVNDTQRAGPDGDDMIFYDNASWDIFWQTCTELDVPLYLHPRNPTGTIYEKLWADRKWLVGPPLSFAQGVSLHVLGMVTNGVFDRHPNLQLIMGHLGEHVPFDMWRINHWFEDRKKLLGLAETCKKTIREYFAQNIWITTSGHFSTTTLNFCMAEVGVDRILFSIDYPFETFEDACVWFDGAELNLSDKAKIGRDNAARLFKLGAFRDYDAKVKA
# modifications: Aspergillus niger
# B9: 18 (protein, listed as Legionella pneumophila)
# chain: MAIVDFETHFITEACIDYLTQRQEVPKLVPELNGAYTMCFTPDVSLFHTSALMEELLSLNEQRLAIMDQAGVTIQVLSLTTINGIDSCPGDENKSTALAREVNDQLYSAIQKHPERFKGFASISPYDVKEGVKELERAISQLGFVGWLTHSNFGQDNYLDDKIYWPLLEAAESLNIPIYLHPNVPIMREFGKYGFALGGSALGFEFDTALCLMRMILGGVFDAFPKLKIMLGHLGETMPFLMERLDHLYRIPDLKPYRPSIQRIPSEVLRQNVYITTSGRFFVPALRYVLEVMGEDRVLFASDYPMESLLDATRFIQDSDLSNQTKQKIFSINAKNLNLI
# B10: 20 (protein, listed as Legionella pneumophila)
# chain: B9 chain with E31D, K112R, I163T, S173G, P256A
# B11: 107 (protein, listed as Rhodopseudomonas palustris)
# chain: MAIIDIHGHYTTAPKALEDWRNRQIAGIKDPSVMPKVSELKISDDELQASIIENQLKKMQERGSDLTVFSPRASFMAHHIGDFNVSSTWAAICNELCYRVSQLFPDNFIGAAMLPQSPGVDPKTCIPELEKCVKEYGFVAINLNPDPSGGHWTSPPLTDRIWYPIYEKMVELEIPAMIHVSTSCNTCFHTTGAHYLNADTTAFMQCVAGDLFKDFPELKFVIPHGGGAVPYHWGRFRGLAQEMKKPLLEDHVLNNIFFDTCVYHQPGIDLLNTVIPVDNVLFASEMIGAVRGIDPRTGFYYDDTKRYIEASTILTPEEKQQIYEGNARRVYPRLDAALKAKGK
# B12: 14 (protein, listed as Talaromyces marneffei)
# chain: MARGKVSFEEAYEIPALADKSREQAALYIAPKDLDRYLSEIKSPTGGRLDISNKNGIGYTIYSLTVPGVQGIADKAKAEKHATDVNNWIYNEIKDHRDRMGAFAALSMHDPVQAGQELERCVKKLGFHGALLNNWQHAGTDGETYIFYDHPSYDVFWQKCVELDVPVYLHPSAPSGKVFDTFFKDRRYLIGPPISFAQDVALHTMGLITNGVFDRNPKLKLILGHLGERIPQDLWRTNHWLEDVERPLADSRGDTMSRKPLLYYFKNNIYVTTSGHFSTETVKFVCDYFGADRILFSVDSPYEKIEEGAGWYDKDKDNLTKALGGPQQYLDVGRENAKKLFKLGKYHDCDA
# B13: 10 (protein, listed as Starkeya novella)
# chain: MARKIALEEHFTTPELAGKYVARPTQSDALFADIERRLADFDELRLEMMDRAEIDLMVLSVTTPGVQGVRDTGEAIRLARGANDFLAREVQKRPSRYAGFAHLAMQDAEAAATELERAVRELGFRGALINGQTNGHYLDEDQYAPFWERVQELDVPVYLHPGNMADSPAMFAHRPELGGPIWAWTAETAAHALRLVFGGTFTRFPGAKVILGHMGETLPFLLWRLDSRREFDLGEKLAPDALPSAIIKRNIAVTTSGVCDPAPLVAALQALSDDNVMFSVDYPYEDPQLASKFIETAPIGEETRAKVCHGNAERLLGL
# B14: 15 (protein, listed as Metarhizium anisopliae)
# chain: MAQEIAKSHETSTRFAGFAVLPMRDPEAAAKELERAVKKLGFVGALVDHKTAHGNGFCEGNEYDVLWRKAEQLAVPIYLHPSWPTEKQFQQAYAGNYSPTAAGTIGGAMFNWHSEVGHHVLRLYAAGVFDKFPKLKIIIGHFGEMIPYMLDRIREQDHRLGKTGRTFSEVYDENIWITTSGVWSLDPMRCILANTKIDHILYSVDYPFTMNERGLEWFQELEKSGLLSEEDLALIAYKNCEKLLGVKAPTQD
# Test: Saturation mutagenesis of SEQ ID NO:109: dicamba decarboxylation activity of point mutants (carbon dioxide released)
# Settings: decarboxylation activity (carbon dioxide released) of point mutant compared with unmutated backbone protein; backbone SEQ ID NO: 109
row,Molecule,Fold Activity
1,B1,1
2,B2,1.3
3,B3,1.2
4,B4,0.9
5,B5,0.9
6,B6,1.8
7,B7,0.8
8,B8,1
9,B9,1.2
10,B10,1.8
11,B11,1.7
12,B12,1
13,B13,1.2
14,B14,1

# Test: 14C assay with IPTG-induced recombinant E. coli cells: 14CO2 captured from [14C]-carboxyl-labeled dicamba
# Settings: dicamba decarboxylation activity of the protein of the given SEQ ID NO; High / Low / No
row,Molecule,Enzymatic Detection level
1,B1,No
2,B2,Low
3,B3,No
4,B4,No
5,B5,No
6,B6,Low
7,B7,No
8,B8,Low
9,B9,Low
10,B10,Low
11,B11,No
12,B12,Low
13,B13,Low
14,B14,Low

# Same assay, conditions: induced recombinant E. coli cells, [14C]-carboxyl-labeled dicamba, 14CO2 capture
row,Molecule,Dicamba Decarboxylase Activity
1,B1,No
2,B2,Low
3,B3,No
4,B4,No
5,B5,No
6,B6,Low
7,B7,No
8,B8,Low
9,B9,Low
10,B10,Low
11,B11,No
12,B12,Low
13,B13,Low
14,B14,Low
